Columns and labels:
[1] = target: T1, human Bcl-XL a.a. 1-205 with C-terminal avi-6his tag (human, UniProt Q07817 2-206); assay: BLI, biotinylated target on streptavidin sensor, range of analyte concentrations
T1 construct: also called BCL2L1

[2] = target: T2, human Bfl-1 a.a. 1-153 (C4S) with C-terminal avi-6his tag (human); assay: as above
T2 construct: also called A1/Bfl-1
T2 chain: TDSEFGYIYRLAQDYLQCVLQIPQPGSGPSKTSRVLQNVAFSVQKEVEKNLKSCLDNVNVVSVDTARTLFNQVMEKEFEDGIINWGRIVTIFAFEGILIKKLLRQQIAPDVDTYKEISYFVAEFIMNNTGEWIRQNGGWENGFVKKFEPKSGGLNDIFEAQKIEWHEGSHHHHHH

[3] = target: T3, human Mcl-1 a.a. 172-327 with C-terminal avi-6his tag (human); assay: as above
T3 chain: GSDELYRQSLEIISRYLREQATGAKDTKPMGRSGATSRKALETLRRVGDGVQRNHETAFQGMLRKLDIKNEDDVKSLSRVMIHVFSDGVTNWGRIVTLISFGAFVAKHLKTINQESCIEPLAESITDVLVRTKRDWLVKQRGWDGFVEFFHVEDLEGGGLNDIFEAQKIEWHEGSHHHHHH

[4] = target: T4, human Bcl-B a.a. 11-175 with C-terminal avi-6his tag (human); assay: as above
T4 construct: also called BCL2L10
T4 chain: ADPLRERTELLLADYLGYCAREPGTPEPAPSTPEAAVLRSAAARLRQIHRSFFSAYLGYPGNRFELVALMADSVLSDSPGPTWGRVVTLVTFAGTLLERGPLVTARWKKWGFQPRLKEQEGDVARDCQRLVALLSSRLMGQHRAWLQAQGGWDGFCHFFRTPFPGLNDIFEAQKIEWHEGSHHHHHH

[5] = target: T5, human Bcl-w a.a. 1-182 with C-terminal avi-6his tag (human, UniProt Q92843 1-182); assay: as above
T5 construct: range 1-182; also called BCL2L2
T5 sequence: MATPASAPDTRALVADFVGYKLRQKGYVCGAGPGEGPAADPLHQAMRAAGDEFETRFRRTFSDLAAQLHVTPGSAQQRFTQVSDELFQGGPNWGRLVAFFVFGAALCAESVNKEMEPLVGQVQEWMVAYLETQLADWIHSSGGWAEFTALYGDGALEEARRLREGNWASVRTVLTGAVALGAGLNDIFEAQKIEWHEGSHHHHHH

[6] = target: human Bcl-2 a.a. 1-207 with C-terminal avi-6his tag (human, UniProt P10415 2-207); assay: as above
Sequence of human Bcl-2 a.a. 1-207 with C-terminal avi-6his tag (P10415 other isoform, or with tags, fused parts or gaps limits assumed): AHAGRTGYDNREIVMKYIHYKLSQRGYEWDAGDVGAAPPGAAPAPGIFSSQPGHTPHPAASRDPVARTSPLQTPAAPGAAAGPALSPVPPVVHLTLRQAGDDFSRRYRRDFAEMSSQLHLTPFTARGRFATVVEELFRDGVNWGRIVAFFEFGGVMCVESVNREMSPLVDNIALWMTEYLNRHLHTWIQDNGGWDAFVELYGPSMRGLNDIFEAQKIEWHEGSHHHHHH

[7] = target: Mcl-1 in human cancer cell lines (HeLa, colon cancer lines) (human, UniProt Q07820 1-350); assay: cell-based or functional assay
Sequence of Mcl-1 in human cancer cell lines (HeLa, colon cancer lines) (Q07820 whole entry): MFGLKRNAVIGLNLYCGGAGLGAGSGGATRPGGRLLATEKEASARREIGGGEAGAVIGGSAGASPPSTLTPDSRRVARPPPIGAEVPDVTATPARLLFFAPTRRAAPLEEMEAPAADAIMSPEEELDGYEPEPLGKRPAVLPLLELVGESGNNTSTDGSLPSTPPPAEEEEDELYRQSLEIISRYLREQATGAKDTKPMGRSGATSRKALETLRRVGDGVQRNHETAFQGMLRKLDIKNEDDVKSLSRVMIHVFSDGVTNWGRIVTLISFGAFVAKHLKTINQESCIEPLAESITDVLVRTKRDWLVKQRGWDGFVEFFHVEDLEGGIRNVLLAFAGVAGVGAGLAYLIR

[8] = target: T3, human Mcl-1 a.a. 172-327 with …; assay: ratio of the KD of the next tightest BCL2 protein to the KD of the target, BLI

T1 sequence (Q07817 other isoform, or with tags, fused parts or gaps limits assumed): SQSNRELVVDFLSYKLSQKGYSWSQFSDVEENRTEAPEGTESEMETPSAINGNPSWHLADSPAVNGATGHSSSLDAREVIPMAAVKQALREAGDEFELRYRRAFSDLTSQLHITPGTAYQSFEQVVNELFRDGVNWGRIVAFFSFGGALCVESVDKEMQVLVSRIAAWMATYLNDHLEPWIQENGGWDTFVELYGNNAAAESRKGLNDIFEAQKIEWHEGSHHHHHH

B1: MINDI (Mcl-1-inhibiting design acting intracellularly) (designed binder)
chain: ADPKKVLDKAKDQAENRVRELKQVLEELYKEARKLDLTQEMRKKLIERYAAAIIRAIGDINNAIYQAKQEAEKLKKAGLVNSQQLDELLRRLDELQKEASRKANEYGREFELKLEY
notes: also called M-CDP04; αMCL1
Kd [1]: 400 µM
Kd [2]: 30 µM
Kd [3]: 0.00015 µM
Kd [4]: 40 µM
Kd [5]: 200 µM
Kd [6]: 14.2 µM
decrease of the EC50 of A-1331852 in colon cancer lines on expression of αMCL1 [7]: 4.6 fold
Specificity [8]: 93000 fold
